In patent publication US20200131274A1 (CRESCENDO BIOLOGICS, published 2020):
Values joined by “and” are separate entries in the source; they are usually repeats but may differ in a detail not shown here. Identical values can stand only once.

What was measured:
[1] = molecular target: T1, cynomolgus PSMA, full-length, on CHO cells (cynomolgus, UniProt A0A2K5VNZ0 1-750); experiment: cell-based or functional assay
[2] = molecular target: T2, recombinant human PSMA (R&D, cat. no. 4234-ZN) (human, UniProt Q04609 44-750); experiment: Octet RED384 BLI, PSMA on sensor, VH purified from periplasmic extracts
T2 construct: Bought protein; also called rhPSMA; Recombinant PMSA
T2 sequence (Q04609 44-750 limits assumed): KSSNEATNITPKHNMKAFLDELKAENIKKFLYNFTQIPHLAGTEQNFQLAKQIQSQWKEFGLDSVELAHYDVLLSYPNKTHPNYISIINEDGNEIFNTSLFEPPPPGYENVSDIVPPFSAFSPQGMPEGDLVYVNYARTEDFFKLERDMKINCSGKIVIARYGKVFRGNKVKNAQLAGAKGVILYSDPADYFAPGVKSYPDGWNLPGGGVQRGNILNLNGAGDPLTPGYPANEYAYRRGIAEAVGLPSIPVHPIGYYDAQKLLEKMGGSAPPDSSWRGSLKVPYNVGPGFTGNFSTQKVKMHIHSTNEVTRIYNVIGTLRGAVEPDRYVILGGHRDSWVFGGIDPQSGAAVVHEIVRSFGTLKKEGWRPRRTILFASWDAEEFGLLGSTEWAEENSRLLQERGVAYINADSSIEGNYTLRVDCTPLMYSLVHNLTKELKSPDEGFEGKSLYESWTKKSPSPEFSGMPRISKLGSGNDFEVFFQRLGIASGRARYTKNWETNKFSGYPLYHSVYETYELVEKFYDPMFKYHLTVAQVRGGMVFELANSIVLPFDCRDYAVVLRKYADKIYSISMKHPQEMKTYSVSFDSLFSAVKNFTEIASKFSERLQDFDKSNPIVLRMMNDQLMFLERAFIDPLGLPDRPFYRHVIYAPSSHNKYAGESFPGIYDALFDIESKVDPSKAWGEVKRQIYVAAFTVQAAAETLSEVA

[3] = molecular target: T2, recombinant human PSMA (R&D, cat. no. …); experiment: Octet RED384 BLI, PSMA amine-coupled to sensor, 1:1 model
[4] = molecular target: T3, human prostate specific membrane antigen (PSMA), full-length, on cells (human, UniProt Q04609 1-750); experiment: FMAT Mirrorball direct cell binding, purified His-tagged VH titrated on LNCap cells, FL2 median binding signal [panel LNCap cell binding]
T3 construct: also called huPSMA; human PSMA
T3 sequence (Q04609 whole entry): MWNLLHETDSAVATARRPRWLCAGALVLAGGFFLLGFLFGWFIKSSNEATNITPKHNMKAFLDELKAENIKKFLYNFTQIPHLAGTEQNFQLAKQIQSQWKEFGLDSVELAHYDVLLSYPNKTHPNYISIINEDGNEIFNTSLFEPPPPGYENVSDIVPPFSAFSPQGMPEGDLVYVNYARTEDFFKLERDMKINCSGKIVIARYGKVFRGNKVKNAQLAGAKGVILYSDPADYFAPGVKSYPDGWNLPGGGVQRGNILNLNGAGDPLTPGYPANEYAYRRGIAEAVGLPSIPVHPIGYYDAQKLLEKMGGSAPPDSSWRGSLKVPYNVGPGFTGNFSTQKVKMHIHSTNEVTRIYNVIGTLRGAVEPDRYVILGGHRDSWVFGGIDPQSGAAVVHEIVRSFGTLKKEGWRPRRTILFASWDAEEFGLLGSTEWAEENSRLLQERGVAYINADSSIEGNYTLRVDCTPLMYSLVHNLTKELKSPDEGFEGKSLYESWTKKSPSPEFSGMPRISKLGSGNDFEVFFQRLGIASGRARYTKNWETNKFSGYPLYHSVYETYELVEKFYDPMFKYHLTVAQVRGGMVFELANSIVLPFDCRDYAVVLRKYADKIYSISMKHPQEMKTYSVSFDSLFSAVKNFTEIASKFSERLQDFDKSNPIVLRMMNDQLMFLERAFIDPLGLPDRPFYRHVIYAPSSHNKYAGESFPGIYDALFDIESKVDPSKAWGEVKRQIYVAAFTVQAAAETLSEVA

[5] = molecular target: T1, cynomolgus PSMA, full-length, on CHO …; experiment: FMAT Mirrorball direct cell binding, purified His-tagged VH titrated on CHO cells expressing cynomolgus PSMA, FL2 median binding signal [panel cynoPSMA-CHO binding]
[6] = molecular target: T3, human prostate specific membrane …; experiment: FMAT Mirrorball direct cell binding, purified His-tagged VH titrated on CHO cells expressing human PSMA, FL2 median binding signal [panel huPSMA-CHO binding]
[7] = molecular target: T3, human prostate specific membrane …; experiment: cell-based or functional assay
[8] = molecular target: T3, human prostate specific membrane …; experiment: cell-based or functional assay; remark: listed apart in the source
[9] = molecular target: T1, cynomolgus PSMA, full-length, on CHO …; experiment: cell-based or functional assay; remark: listed apart in the source
[10] = molecular target: T3, human prostate specific membrane …; experiment: cell-based or functional assay; remark: listed apart in the source
[11] = molecular target: T1, cynomolgus PSMA, full-length, on CHO …; experiment: cell-based or functional assay; remark: listed apart in the source
[12] = molecular target: T3, human prostate specific membrane …; experiment: FMAT direct cell binding, LNCap cells
[13] = molecular target: T3, human prostate specific membrane …; experiment: FMAT direct cell binding, DU145 PSMA cells
[14] = molecular target: T1, cynomolgus PSMA, full-length, on CHO …; experiment: FMAT direct cell binding, CHO cyno PSMA cells
[15] = molecular target: T3, human prostate specific membrane …; experiment: FMAT direct cell binding, CHO human PSMA cells
[16] = molecular target: T2, recombinant human PSMA (R&D, cat. no. …); experiment: Octet RED384 BLI, PSMA on sensor, VH series from 0.375 ug/ml
[17] = molecular target: T3, human prostate specific membrane …; experiment: FMAT cell binding, huPSMA CHO 1A10 cells, after 1 day in human serum at 37 C
[18] = molecular target: T3, human prostate specific membrane …; experiment: FMAT cell binding, huPSMA CHO 1A10 cells, after 0 days in human serum at 37 C
[19] = molecular target: T3, human prostate specific membrane …; experiment: FMAT cell binding, huPSMA CHO 1A10 cells, after 4 days in human serum at 37 C
[20] = molecular target: T3, human prostate specific membrane …; experiment: FMAT cell binding, huPSMA CHO 1A10 cells, after 7 days in human serum at 37 C
[21] = molecular target: T1, cynomolgus PSMA, full-length, on CHO …; experiment: FMAT direct binding on CHO cells expressing cynomolgus PSMA, VH kept 8 days at 40 °C, FL2 median mean fluorescence
[22] = molecular target: T1, cynomolgus PSMA, full-length, on CHO …; experiment: FMAT direct binding on CHO cells expressing cynomolgus PSMA, VH not heated (4 °C, day 0), FL2 median mean fluorescence
[23] = molecular target: T2, recombinant human PSMA (R&D, cat. no. …); experiment: HTRF binding assay: His-Myc tagged VH, 3 nM biotinylated PSMA, streptavidin cryptate and anti-Myc Alexa Fluor 647; VH kept 0-7 days at 37 °C in cynomolgus monkey serum; Delta F% binding signal
[24] = molecular target: T2, recombinant human PSMA (R&D, cat. no. …); experiment: Octet RED384 BLI, PSMA on sensor, Table 21 b
[25] = molecular target: T2, recombinant human PSMA (R&D, cat. no. …); experiment: Octet RED384 BLI, PSMA on sensor, Table 21 c
[26] = molecular target: T2, recombinant human PSMA (R&D, cat. no. …); experiment: Octet RED384 BLI, PSMA on sensor, VH series from 0.375 ug/ml; remark: listed apart in the source
[27] = molecular target: T3, human prostate specific membrane …; experiment: FMAT cell binding, huPSMA CHO 1A10 cells, after 1 day in human serum at 37 C; remark: listed apart in the source
[28] = molecular target: T3, human prostate specific membrane …; experiment: FMAT cell binding, huPSMA CHO 1A10 cells, after 0 days in human serum at 37 C; remark: listed apart in the source
[29] = molecular target: T3, human prostate specific membrane …; experiment: FMAT cell binding, huPSMA CHO 1A10 cells, after 4 days in human serum at 37 C; remark: listed apart in the source
[30] = molecular target: T3, human prostate specific membrane …; experiment: FMAT cell binding, huPSMA CHO 1A10 cells, after 7 days in human serum at 37 C; remark: listed apart in the source
[31] = molecular target: T2, recombinant human PSMA (R&D, cat. no. …); experiment: Octet RED384 BLI, PSMA on sensor, Table 21 c; Table 21 part c), not part b) (0.85 nM for clone 1.8)

Binder	Kd [3]	koff [3]	EC50 (read off the curve) [5]	pHrodo Green internalization assay, human PSMA Average EC50 (M) [7]	His-ZAP cell killing, human PSMA Average EC50 [8]	His-ZAP cell killing, cyno PSMA EC50 [9]	EC50 [12]	EC50 [13]	EC50 [14]	EC50 [15]	Kd [16]	koff [16]	EC50 [17]	EC50 [18]	EC50 [19]	EC50 [20]	other results
single VH domain antibody 5.1 (VHH, Human single VH domain antibody (Humabody); purified via the C-terminal His-tag, residues not tied) VHH: QVQLVESGGGVVQPGRSLRLSCAASGFTFNNYGMHWVRQAPGKGLEWVAIISYDGNTKYYTDSVKGRFTISRDNSKNTLYLQMNSLRVEDTAVYYCAKGLWPSDVWGQGTTVTVSS																	EC50 (read off the curve): pHrodo Green internalisation signal FL2, CHO cells expressing cynomolgus PSMA [1]: ~2e-09 M; Kd [2]: 30 nM; koff [2]: 0.0091 s⁻¹
single VH domain antibody 3.1 (VHH, Human single VH domain antibody (Humabody); C-terminal His tag, residues not tied; also called VH3.1) VHH: EVQLVESGGGVVQPGRSLRLSCAASGFPLISYGMHWVRQAPGKGLEWVAFMTYDGSNRYYADSVKGRFTISRDNSKNTLYLQMNSLRDEDTALYYCARDRIVGGRVPDAFDIWGQGTMVTVSS	3.78 nM	0.000452 s⁻¹	~2 nM														EC50 (read off the curve) [4]: ~2 nM; EC50 (read off the curve) [6]: ~2 nM
single VH domain antibody 2.1 (VHH, Human single VH domain antibody (Humabody); tested with a C-terminal His tag; 71-95; also called VH 2.1; VH2.1) VHH: EVQLVESGGGVVQPGRSLRLSCAASGFSFSGYGMHWVRQAPGKGLEWVAYISYDGSNKYYADSVKGRFTISRDNSKNTLYLQMNSLRAEDTAVYYCAKDPAWGLRLGESSSYDFDIWGQGTMVTVSS	1.64 nM	0.000456 s⁻¹	~0.6 nM	8e-10 M	0.014 nM	0.052 nM	0.0607 nM	0.23 nM	0.367 nM	0.11 nM	0.32 nM	0.000228 s⁻¹	0.254 nM	0.249 nM	0.26 nM	0.301 nM	IC50 (read off the curve): His-ZAP saporin cell killing, human-PSMA CHO, % Control (Cell Titer-Glo) [10]: ~0.04 nM; IC50 (read off the curve): His-ZAP saporin cell killing, cyno-PSMA CHO, % Control (Cell Titer-Glo) [11]: ~0.1 nM; EC50 (read off the curve) [21]: ~2 nM; EC50 (read off the curve) [22]: ~2 nM; EC50 (read off the curve) [23]: ~1 nM
single VH domain antibody 2.22 (VHH, Human single VH domain antibody (Humabody); C-terminal His tag, residues not tied) VHH: EVQLVESGGGVVQPGRSLRLSCAASGFSFSGYGTHWVRQAPGKGLEWVAYISYDGSNKYYAAPVKGRFTISRDNSKNTLYLQMNSLRAEDTAVYYCAKDAAWGLRLGESSSYDFDIWGQGTMVTVSS				6.7e-10 M	0.069 nM	0.18 nM	0.153 nM	0.229 nM	0.613 nM	0.123 nM	2.62 nM	0.00244 s⁻¹	0.291 nM	0.305 nM	0.34 nM	0.328 nM	
single VH domain antibody 1.8 (VHH, Human single VH domain antibody (Humabody)) VHH: EVQLLESGGGLVQPGGSLRLSCAASGFSFSSYAMSWVRQAPGKGLEWVSSIGENDGTTDYADSVKGRFTISRDNSKNTLYLQMNSLRVEDTAVYYCVKDGVHWGQGTLVTVSS				5e-10 M and 1.2e-09 M	0.026 nM and 0.04 nM	1.4 nM	0.147 nM	0.0945 nM	0.31 nM	0.103 nM							Kd [24]: 0.85 nM; koff [24]: 0.00068 s⁻¹; koff [25]: 0.00104 s⁻¹; Kd [26]: 1.95 nM; koff [26]: 0.00104 s⁻¹; EC50 [27]: 0.486 nM and 0.22 nM; EC50 [28]: 0.409 nM and 0.17 nM; EC50 [29]: 0.496 nM and 0.25 nM; EC50 [30]: 0.542 nM and 0.27 nM; Kd [31]: 1.95 nM
